Test results reported in publication PMC2694808.
Where “and” joins values, the source holds several entries; their conditions need not be identical. Equal values may be shown once.

Test system: Hfq
Test: EMSA
Details: 40 or 100 mM NH4Cl, 10 mM Tris-HCl pH 7.5, 5 mM Mg acetate, 0.1 mM DTT, 37°C (EMSA 10 min; SPR Biacore 2000)

For invE RNA probe (140 nt), the K half was 1.7 nM and 6.2 nM.
